# Data as given in patent US20210070885A1 (published 2021).
# Biological target: HER2m1-Fc (UniProt P04626 23-652)
# Assay: ELISA
row,Binder,EC50
1,"Tmab-CLC5 (antibody, V domains shown) VH: not shown VL: DIQMTQSPSSLSASVGDRVTITCKASQDVSIGVAWYQQKPGKAPKLLIYSASYRYTGVPSRFSGSGSGTDFTLTISSLQPEDFATYYCQQYYIYPYTFGQGTKVEIKR",0.616 µg/mL
2,"Tmab-CLC6 (antibody, V domains shown) VH: not shown VL: DIQMTQSPSSLSASVGDRVTITCKASQDVSIGVAWYQQKPGKAPKLLIYSASYRYTGVPSRFSGSGSGTDFTLTISSLQPEDFATYYCQQYYITPYTFGQGTKVEIKR",1.1 µg/mL

# Biological target: HER2m2-Fc (UniProt P04626 23-652)
# Assay: ELISA
row,Binder,EC50
1,"Pmab-CLC2 (antibody, V domains shown) VH: EVQLVESGGGLVQPGGSLRLSCAASGFTFTDYTMDWVRQAPGKGLEWVADVNPNSGGSIYNQRFKGRFTLSVDRSKNTLYLQMNSLRAEDTAVYYCARNLGPSFYFDYWGQGTLVTVSS VL: not shown",0.598 µg/mL
2,"Pmab-CLC3 (antibody, V domains shown) VH: EVQLVESGGGLVQPGGSLRLSCAASGFTFTDYTMDWVRQAPGKGLEWVADVNPNSGGSIYNQRFKGRFTLSVDRSKNTLYLQMNSLRAEDTAVYYCARNLGPSFYFDYWGQGTLVTVSS VL: not shown",0.49 µg/mL
3,"Pmab-CLC6 (antibody, V domains shown) VH: EVQLVESGGGLVQPGGSLRLSCAASGFTFTDYTMDWVRQAPGKGLEWVADVNPNSGGSIYNQRFKGRFTLSVDRSKNTLYLQMNSLRAEDTAVYYCARNLGPSFYFDYWGQGTLVTVSS VL: DIQMTQSPSSLSASVGDRVTITCKASQDVSIGVAWYQQKPGKAPKLLIYSASYRYTGVPSRFSGSGSGTDFTLTISSLQPEDFATYYCQQYYITPYTFGQGTKVEIKR",0.393 µg/mL
4,"Pmab-CLC4 (antibody, V domains shown) VH: EVQLVESGGGLVQPGGSLRLSCAASGFTFTDYTMDWVRQAPGKGLEWVADVNPNSGGSIYNQRFKGRFTLSVDRSKNTLYLQMNSLRAEDTAVYYCARNLGPSFYFDYWGQGTLVTVSS VL: not shown",0.479 µg/mL
